Source: the RNAGym collection of RNA variant scans (doi:10.7554/elife.90254)

B1: LINE1-mini (parent)
chain: GGCAGAGCUCAACACAGCGUGGCAAAGUGGCUGUGGCUAGACUGCC

Variants of: B1
Assay: self-cleavage, relative activity (ratio to wild type); higher = more cleavage; in vitro, sequencing; the parent is a self-cleaving ribozyme
Work on GGCAGAGCUCAACACAGCGCGGCAAAGUGGCUGUGGCUAGAUUGCC [U20C C42U] yielded a self-cleavage of 0.31. For GGCAUAGCUUAACACAGCGUGGCAAAGUGGCUGUGGCUAGACUGCC [G5U C10U], the self-cleavage was 0.06. With GGCUGAGCUCAACACAGCGUGGCAAAGGGGCUGUGGCUAGACUGCC [A4U U28G] the self-cleavage was 0.17. For GGCAGAGCUCAACACAGCGUGGCAAAGUCGCUGGGGCUAGACUGCC [G29C U34G], the self-cleavage was 0.2. GGCAGAGCUCAACACAGUGUGGCAAAGAGGCUGUGGCUAGACUGCC [C18U U28A] gave a self-cleavage of 0.86. Variant GGUAGAGCUCAACACAGCGUGGCAAAGGGGCUGUGGCUAGACUGCC [C3U U28G] has a self-cleavage of 0.23. GGCAGUGCUCAACACAGCGUAGCAAAGUGGCUGUGGCUAGACUGCC [A6U G21A] gave a self-cleavage of 2.16. Work on GGCAGAGCUCAACGCAGCGUGGCAAAGUGGCUGUGGCUAGAAUGCC [A14G C42A] yielded a self-cleavage of 0.08. Variant GGCAGAGCUUAACACAGCUUGGCAAAGUGGCUGUGGCUAGACUGCC [C10U G19U] has a self-cleavage of 0.21. In the case of GGCAGUGCUCAACGCAGCGUGGCAAAGUGGCUGUGGCUAGACUGCC [A6U A14G], the self-cleavage is reported as 0.1. With GGAAGAGCUCCACACAGCGUGGCAAAGUGGCUGUGGCUAGACUGCC [C3A A11C] the self-cleavage was 0.04. GGCAGAGCUCAACAGAGCGUGGCAAAGUGGCUGUGGCUAGACUGCC [C15G] showed a self-cleavage of 0.07. GUCAUAGCUCAACACAGCGUGGCAAAGUGGCUGUGGCUAGACUGCC [G2U G5U] showed a self-cleavage of 0.02. Work on GGCAGAGCUCAACACAGCGUGGCAAAGCGGCUGUGGCUGGACUGCC [U28C A39G] yielded a self-cleavage of 0.09. With CGCAGAGCUCAACACAGCGUGGCAAAGUGGCUGUGGCUAGACUACC [G1C G44A] the self-cleavage was 0.06. In the case of GGCAGCGCUCAACACAGCGUGGCAAAGUGGCUGUGGUUAGACUGCC [A6C C37U], the self-cleavage is reported as 0.12. In the case of GGCAGAGCUCAACACAGAGUGGCAAAGUGGCUGUGGCUAGACUGCC [C18A], the self-cleavage is reported as 0.85. In the case of UGCAGAGCUCAACACAGCGUGGCUAAGUGGCUGUGGCUAGACUGCC [G1U A24U], the self-cleavage is reported as 0.32. In the case of GGCAGAGCUCAACACAGCGUGGCAAAGUGGGUGUGGCUAGACCGCC [C31G U43C], the self-cleavage is reported as 0.05. Variant GGCAGAGCUCAACACAGCAUGGCAAAGUGGCUGUGGCUAGACUGGC [G19A C45G] has a self-cleavage of 0.38. GGCAGAGCUCAACACAGCGUGGCAAAGUGGGUGUGGCUAGACGGCC [C31G U43G] gave a self-cleavage of 0.05. With GGCAGAGCUCAACACAGCGUGGCAAAGUGGCUCUGGCUUGACUGCC [G33C A39U] the self-cleavage was 0.05. With GGCAGUGCUCAACACAGCGUGGCAAAGUGCCUGUGGCUAGACUGCC [A6U G30C] the self-cleavage was 1.36. For GGCAGAGCUCAACACAGCUUGACAAAGUGGCUGUGGCUAGACUGCC [G19U G22A], the self-cleavage was 0.78. GGCAGAGCGGAACACAGCGUGGCAAAGUGGCUGUGGCUAGACUGCC [U9G C10G] gave a self-cleavage of 0.02. GGUAGAGCUCUACACAGCGUGGCAAAGUGGCUGUGGCUAGACUGCC [C3U A11U] showed a self-cleavage of 0.08. In the case of CGCAGAGCUCAACACAGCGUGGCAAAGUGGCUGUGGUUAGACUGCC [G1C C37U], the self-cleavage is reported as 0.02. GGCAGAGCUCAACACAGCGUGGCAAAUCGGCUGUGGCUAGACUGCC [G27U U28C] showed a self-cleavage of 1.23. Work on GGCAGAGCUCAACACAGCGUGGCAAAGUGGCUUUGGCUGGACUGCC [G33U A39G] yielded a self-cleavage of 0.12. GGCAGAGCUCAACACAGCUUGGCAAAGUGGCUGUGGCUAGAAUGCC [G19U C42A] showed a self-cleavage of 0.14. With GGAAGAGCUCAACACAGCGUGGCAAACUGGCUGUGGCUAGACUGCC [C3A G27C] the self-cleavage was 0.24. GGCAGAGCUCAACACAGCGUGGCAAAGUGGCUGUGGCUGGACUACC [A39G G44A] showed a self-cleavage of 0.16. With GGCAGAGCUCAACACAGCGUGGCAAAGUGGCUGUGGCCAGAUUGCC [U38C C42U] the self-cleavage was 0.07. Work on GGCAGAGCUCAACACAGCGUGGCAAAGUGGCUGGGCCUAGACUGCC [U34G G36C] yielded a self-cleavage of 0.05. With GGUAGAACUCAACACAGCGUGGCAAAGUGGCUGUGGCUAGACUGCC [C3U G7A] the self-cleavage was 0.26. Work on GGCAGAGCACAACACAGCGUGGCAAAGUAGCUGUGGCUAGACUGCC [U9A G29A] yielded a self-cleavage of 0.2. GGCAGAGCUCAACACAGCCUGGCAAAGUGGCUGUGGCUAGAGUGCC [G19C C42G] showed a self-cleavage of 0.01. GGCGGAGCUCAACACAGCGUGGCAAAGUGGCUGUGGCGAGACUGCC [A4G U38G] gave a self-cleavage of 0.04. GGCAGAGCUCAACACAGUGUGGCAAAGUGGCUUUGGCUAGACUGCC [C18U G33U] showed a self-cleavage of 0.05. With GGCAGAGCUCAACACAGCGUGGCAAAAUCGCUGUGGCUAGACUGCC [G27A G29C] the self-cleavage was 0.36. Variant GGCAGAGCUGAACACAGCGUGGCAAAGUGGCUGCGGCUAGACUGCC [C10G U34C] has a self-cleavage of 0.04. GGCAGAGCUCAACACACCGUGGCAAAGUGGCUGUGGCUAGAUUGCC [G17C C42U] gave a self-cleavage of 0.1. Work on GGCAGAGCUCGACACAGCGUGGCAAAGUGGCUGUGGCUAGAGUGCC [A11G C42G] yielded a self-cleavage of 0.01. CGCAGAGCUCAACACAGCGUGUCAAAGUGGCUGUGGCUAGACUGCC [G1C G22U] showed a self-cleavage of 0.17. GGCAGAGCUCAUCACAGCGUGACAAAGUGGCUGUGGCUAGACUGCC [A12U G22A] showed a self-cleavage of 0.4. For GGCAGAGCUCAACGCAGCGUGGCAAAGUGGCUGUGGCUAGAGUGCC [A14G C42G], the self-cleavage was 0.04. GUCAGAGCUCAACACAGCGUCGCAAAGUGGCUGUGGCUAGACUGCC [G2U G21C] gave a self-cleavage of 0.09. For GGCAGAGCUCAACACUGCGUGGCAAAGUGGCUGUGGCUCGACUGCC [A16U A39C], the self-cleavage was 0.08. With GGCAGAGCUCCACACAGCGUGGCAAAGUGGCUGUGGCUAGAUUGCC [A11C C42U] the self-cleavage was 0.02. Work on GGCAGAGCUCUACACAGCGUGGCAAAGUGGCUGUGGCUAGUCUGCC [A11U A41U] yielded a self-cleavage of 0.27. Variant GGCAGAGCUCGACACAGCGUGGCAAAGUGGCUGUGGCUAGACCGCC [A11G U43C] has a self-cleavage of 0.02. Variant GGCAGAGCUUAACACAGCGUGGCAAAGUGGCUGUGGCUAGAGUGCC [C10U C42G] has a self-cleavage of 0.05. For GGCAGAGCUCAACACAGCGUGGCAACGAGGCUGUGGCUAGACUGCC [A26C U28A], the self-cleavage was 0.53. With GGCAGAGCUCAACACAGCGUGGCAAAGUGGCUGGGGCUAGACUGGC [U34G C45G] the self-cleavage was 0.13. In the case of GGCAGAGCUCAACACAGCGUGGCAACGUGGCUGUGGCUGGACUGCC [A26C A39G], the self-cleavage is reported as 0.05. For GGCAGAGCUCAACACAGCAUGGCAAAGUGGCUGUGGCAAGACUGCC [G19A U38A], the self-cleavage was 0.82.
